Reference: the supplement of paper PMC10567573

B1: ZNF649 (parent)
chain: DECEKAYFYMSCLVKHKRIHSREK

Variants of: B1
Assay: protein stability index of a GFP-peptide fusion (GPS, HEK-293T) (PSI 1-6); higher = more stable
Conditions: c terminus: a fixed tail appended
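Note: lentivirally expressed fusions sorted by FACS into six bins by GFP to DsRed ratio, PSI derived from sequencing read proportions per bin multiplied by bin number.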

Protein stability index, by site and new letter:
R18: Y 2.52; C 2.32; K 2.79; E 2.59; H 2.62; V 2.36; S 2.56; T 2.61; M 2.53; F 2.4; Q 2.56; N 3.21; I 2.08; A 2.53; G 2.72; W 2.34; D 2.87; P 2.48; L 1.73
Y7: N 3.61; Q 3.99; G 3.38; H 3.35; R 3.55; P 3.54; V 2.68; I 2.23; S 3.3; K 3.57; W 2.25; L 2.26; M 2.19; T 3
C12: Y 2.43; K 2.8; V 2.42; A 2.83; G 3.33; H 3.12; W 2.33; Q 3.09; I 1.64; N 3.38; F 2.69; S 3.68; E 3.54; P 3.05; D 4.16; R 2.96; M 2.95; L 2.23; T 3.83
K15: Y 1.92; M 1.9; W 1.53; N 3.16; Q 2.3; V 1.75; F 1.87; S 2.34; L 2.15; C 2.41; E 2.54; I 2.18; P 2.02; G 2.29; R 2.12; H 2.45; D 3.24; T 2.16; A 2.56
H20: R 2.59; D 3.33; F 2.88; A 2.22; W 2.4; P 3.15; M 2.1; Q 2.6; E 3.6; C 2.92; K 2.6; G 2.55; N 2.57; V 2.24; Y 2.59; I 2.09; L 2.48; S 2.37; T 2.12
I19: N 2.97; K 2.9; W 2.81; T 2.98; G 3.27; H 3.15; L 2.4; R 3.19; A 3.26; Q 3.42; F 2.53; P 3.3; S 3.36; C 3.2; E 3.93; D 3.59; Y 2.34; M 2.66; V 3.18
R22: W 1.71; T 2.38; H 2.39; S 2.08; I 2.24; C 2.36; E 2.89; Y 2.16; M 2.22; Q 2.28; G 2.19; V 2.32; P 2.89; F 2.09; A 2.54; L 1.43; K 3.08; N 2.82; D 2.8
S21: I 2.61; A 2.48; V 2.65; F 1.91; N 2.98; C 3.33; P 2.08; E 2.85; G 2.29; K 2.77; D 2.61; L 2.14; Q 2.95; Y 1.87; H 2.53; W 1.61; R 2.58; M 2.13; T 2.15
S11: E 2.62; W 1.33; M 2.37; D 3.55; A 2.07; H 2.82; G 3.21; K 2; R 2.47; N 2.97; Y 2.68; I 1.76; F 1.66; Q 3.03; P 3.24; L 1.74; C 2.13; T 2.94; V 1.87
F8: H 3.79; A 3.44; S 3.78; V 3.23; W 3.07; M 3.36; E 4.18; R 2.82; C 2.96; N 3.7; Q 3.75; P 4.1; T 3.52; I 2.67; D 3.88; K 3.6; G 4.02; L 2.48; Y 2.65
E23: W 2.23; V 2.2; N 2.38; R 3.04; Q 2.99; L 2.99; F 2.15; H 2.36; T 2.48; I 2.42; M 1.8; A 3.48; P 2.1; C 3.15; Y 2.17; K 2.7; D 2.81; G 2.62; S 2.23
H16: K 2.65; Q 2.64; Y 2.11; N 2.75; T 2.56; C 1.76; G 3.24; P 2.92; W 2.29; L 1.84; A 2.51; V 1.61; R 2.82; I 1.69; M 1.98; D 3.25; F 1.79; E 3.53; S 3.06
Y9: G 4.26; C 2.81; E 3; F 2.66; Q 3; K 3.73; L 2.35; A 3.71; D 4.51; R 3.9; N 3.93; T 3.94; P 3.78; I 2.42; H 3.03; W 3.49; S 3.56; V 2.54; M 2.57
K17: E 2.54; M 1.61; N 2.45; L 1.91; F 2.83; I 1.68; V 2.19; Q 2.3; D 2.85; H 2.05; A 2.94; S 2.19; W 2; C 1.83; R 2.39; P 2.35; Y 2.14; G 2.42; T 2.27
L13: Y 2.21; G 3.24; C 3.27; T 2.81; N 3.65; W 3.19; F 3.18; V 2.98; Q 2.99; S 2.79; A 3.07; I 2.29; M 3.25; H 2.95; K 2.68; R 2.15; P 3.1; D 4.25; E 3.61
M10: L 2.19; V 2.38; S 3.19; Q 4.12; P 3.16; E 3.92; Y 3.11; K 3.74; W 2.36; I 1.86; G 2.56; H 3.47; F 2.33; N 4.14; D 3.97; A 3.61; T 3.19; R 3.32; C 2.75
V14: R 3.12; Q 3.05; G 2.9; M 2.18; E 3.38; D 3.73; C 2.33; N 3.53; W 1.64; I 2.11; T 3.09; A 2.88; F 1.78; Y 2.5; P 3.27; S 3.65; K 3.41; H 3.86; L 2.63
K24: E 3.45; M 1.97; L 1.75; H 2.72; Q 2.56; C 1.55; N 2.54; R 2.42; I 2.12; A 2.1; D 3.02; G 2.31; P 2.46; S 3.13; F 1.85; T 1.98
